What was measured:
[1] = target: T1, recombinant human CD25 extracellular protein sequence (rhCD25) (human, UniProt P01589 22-240); test: ForteBio BLI; format not given; upper end of the stated Kd range
T1 construct: also called human CD25 antigen; target antigen
T1 sequence: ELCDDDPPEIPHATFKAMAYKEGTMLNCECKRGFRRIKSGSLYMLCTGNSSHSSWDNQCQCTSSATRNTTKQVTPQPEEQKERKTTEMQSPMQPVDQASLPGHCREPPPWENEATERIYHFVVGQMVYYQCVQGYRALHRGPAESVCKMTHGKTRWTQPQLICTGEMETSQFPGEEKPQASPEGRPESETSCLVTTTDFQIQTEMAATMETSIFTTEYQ

[2] = target: T2, human CD25 expressed on cells (human, UniProt P01589 22-272); test: flow cytometry on CD3/CD28 bead activated human Pan T cells, gated on CD4+ T cells
T2 sequence: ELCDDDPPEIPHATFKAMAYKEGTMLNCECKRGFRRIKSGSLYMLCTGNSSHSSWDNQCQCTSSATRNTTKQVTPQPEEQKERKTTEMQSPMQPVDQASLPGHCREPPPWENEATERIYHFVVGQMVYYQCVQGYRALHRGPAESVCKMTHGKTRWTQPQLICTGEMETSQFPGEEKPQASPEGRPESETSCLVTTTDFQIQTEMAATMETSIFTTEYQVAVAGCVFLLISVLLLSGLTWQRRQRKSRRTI
Description: (§1) Binding to CD25 expressing activated human and Cynomolgus monkey PMBC was examined by staining test articles (anti-CD25 primary antibodies) with 20 μg/ml antibodies followed by semi-log dilution series (7-point) for 30 minutes on ice. This was followed by staining with a secondary antibody (rabbit anti-human Fcg F(ab′)2- (Jackson ImmunoResearch)) concentration of 5 μg/ml for 30 minutes on ice. All samples were stained in triplicates. To minimize cross-linking induced cell death mediated by binding of the secondary antibody, cell lines were examined in staining cohorts of 4 test articles at a time. Live lymphocytes were gated using FSC vs SSC parameters by flow cytometry during sample acquisition. Mean fluorescence intensity (MFI) of gated CD4⁺ and CD8⁺ T cell subsets were plotted on an XY chart, graphing MFI against the log of the concentration, and the data fit to a non-linear regression curve from which the EC50 was calculated.

[3] = target: T2, human CD25 expressed on cells; test: flow cytometry on CD3/CD28 bead activated human Pan T cells, gated on CD8+ T cells
Description: as §1

[4] = target: T3, recombinant human CD25 his tagged (human, UniProt P01589 22-240, limits assumed); test: ForteBio BLI, avidity format: rhCD25-His on Ni-NTA sensor, IgG in solution, 1:1 fit
T3 construct: Loaded on Ni-NTA sensors at 20.83 nM; also called rhCD25-his; not shown: His tag
T3 sequence: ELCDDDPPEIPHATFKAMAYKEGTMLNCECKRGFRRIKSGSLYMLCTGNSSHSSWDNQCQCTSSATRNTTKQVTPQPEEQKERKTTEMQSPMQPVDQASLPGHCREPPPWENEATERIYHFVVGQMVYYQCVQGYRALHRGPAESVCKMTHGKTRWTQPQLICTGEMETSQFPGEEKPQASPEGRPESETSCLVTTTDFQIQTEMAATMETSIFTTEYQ

[5] = target: T4, human CD25 antigen, Sino Biologicals cat no. 10165-H08H (human, UniProt P01589 22-213); test: SPR Biacore T200, antibody captured by anti-human Fab, CD25 in solution, Two State Reaction fit; column head 'Binding strength'; Sino Biologicals CD25, ~20% dimer; Two State Reaction fit
T4 construct: Bought protein; also called Sino biological (~20% dimer)
T4 sequence: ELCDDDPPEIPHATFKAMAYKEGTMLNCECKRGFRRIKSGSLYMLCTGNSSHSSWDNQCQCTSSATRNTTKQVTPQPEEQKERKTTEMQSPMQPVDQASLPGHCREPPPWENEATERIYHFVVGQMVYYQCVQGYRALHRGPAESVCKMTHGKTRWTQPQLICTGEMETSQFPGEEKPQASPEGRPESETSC
Description: (§2) Binding of CD25 antibodies to human CD25 antigen was investigated by surface plasmon resonance using a BIACORE T200 instrument (GE Healthcare).
(§3) The flow cell was set to 25° C. and the sample compartment to 12° C. The CD25 antibody was captured by injecting a 3 μg/ml solution for 60 sec at a flow rate of 10 μl/min. Association of CD25 antigen was measured by injection of human CD25 solutions for 180 sec at a flow rate of 30 μl/min starting with a concentration of 1000 nM down to 1 nM in 1:10 dilution steps. The dissociation phase was triggered by switching from sample solution injection to running buffer and monitored for up to 600 seconds. The surface was regenerated by washing with two consecutive 1-minute injections of 10mM glycine pH 2.1 (provided by the kit) at a flow rate of 10 μl/min. Bulk refractive index differences were corrected by subtracting the response obtained from an anti-human Fab reference surface; blank injections are also subtracted (=double referencing).
(§4) For calculation of KD and kinetic parameters Biacore provided fitting models were used to obtain optimal curve fitting results. The 1:1 Langmuir fit was used for P1AA5872 and the Two State Kinetic fitting for CD25 from Sino Biologicals and R&D Systems.

[6] = target: T5, inhouse produced monomeric CD25 antigen (P1AA5872) (human, UniProt P01589 22-240, limits assumed); test: SPR Biacore T200, antibody captured by anti-human Fab, monomeric CD25 in solution, 1:1 Langmuir fit; column head 'Binding strength'
T5 construct: also called Inhouse (0% dimer)
T5 sequence: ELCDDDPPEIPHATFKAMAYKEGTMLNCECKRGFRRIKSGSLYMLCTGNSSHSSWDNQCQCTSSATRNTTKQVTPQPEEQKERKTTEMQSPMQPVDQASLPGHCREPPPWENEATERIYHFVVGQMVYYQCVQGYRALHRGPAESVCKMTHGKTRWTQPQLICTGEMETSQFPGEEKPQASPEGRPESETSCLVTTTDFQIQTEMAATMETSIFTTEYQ
Description: as §2, §3, §4

[7] = target: T2, human CD25 expressed on cells; test: flow cytometry on human in vitro differentiated Treg cells, Alexa Fluor 647 anti-human IgG secondary
Description: Binding to CD25 expressing in vitro differentiated Tregs was examined by staining test articles (anti-CD25 primary antibodies) with 30 μg/ml antibodies followed by semi-log dilution series (7-point) for 30 minutes on ice. […] All samples were stained in duplicates. Live cells were gated using FSC vs SSC parameters by flow cytometry during sample acquisition. Mean fluorescence intensity (MFI) of stained cells were plotted on an XY chart, graphing MFI against the log of the concentration, and the data fit to a non-linear regression curve from which the EC50 is calculated.

[8] = target: T1, recombinant human CD25 extracellular …; test: ForteBio BLI; format not given; lower end of the stated Kd range
[9] = target: T6, human CD25 antigen, R&D Systems cat no. 223-2A/CF (human, UniProt P01589 22-213, limits assumed); test: SPR Biacore T200, antibody captured by anti-human Fab, CD25 in solution, Two State Reaction fit; column head 'Binding strength'
T6 construct: Bought protein; also called R&D Systems (~10% dimer)
T6 sequence: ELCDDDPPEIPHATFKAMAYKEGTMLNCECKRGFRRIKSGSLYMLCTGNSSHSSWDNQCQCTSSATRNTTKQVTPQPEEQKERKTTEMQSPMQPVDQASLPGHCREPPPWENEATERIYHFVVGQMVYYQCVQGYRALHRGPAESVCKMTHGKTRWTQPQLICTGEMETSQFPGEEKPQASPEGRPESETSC
Description: as §2, §3, §4

B1: aCD25-a-674 (antibody, V domains shown)
VH: QVQLVQSGAEVKKPGASVKVSCKASGYTFTSYYMHWVRQAPGQGLEWMGIINPSGGSTSYAQKFQGRVTMTRDTSTSTVYMELSSLRSEDTAVYYCARGGAEYIPAEYFQHWGQGTLVTVSS
VL: EIVMTQSPATLSLSPGERATLSCRASQSVSSYLAWYQQKPGQAPRLLIYDASNRATGIPARFSGSGSGTDFTLTISSLEPEDFAVYYCQQRPFLPTFGGGTKVEIK
notes: not shown: human IgG1 heavy chain constant region, P01857; human kappa light chain constant region, P01834
- Kd [1]: ≤ 10 nM
- EC50 (read off the curve) [2]: ~0.9 µg/mL
- EC50 (read off the curve) [3]: ~1 µg/mL
- Kd [4]: 2.12 nM
- Kd [5]: 40 nM
- Kd [6]: 517 nM
- EC50 (read off the curve) [7]: ~2 µg/mL
- Kd [8]: ≥ 0.1 nM
- Kd [9]: 48 nM

Reference: patent US20210009704A1 (TUSK THERAPEUTICS, published 2021)
